# Test results as given in patent publication US20250236657A1 (TOSOH, published 2025).
# Numbering of substitutions follows the chain as printed.
# B1: AAV-binding protein AVR11a with cysteine tag (SEQ ID NO: 100), immobilised as AVR11a immobilization gel (receptor)
# chain: MGSAGESDQITLPKNEVQLNVYVLQEPPKGETSTYDWQLITHPRDYSGEMEGEHSQILKLSNLTPGLYEFKAVVEGQNAHSEGYVNVTVEPEPRKNRPPIAIVSPQFQEISLPTTSTVIDGSQSTDDDKIVQYHWEELKGPLREEKISEDTAILKLSKLVPGNYTFRLTVVDSDGATDSTTANLTVNKAVDHHHHHHCRNDTCG
# modifications: immobilised on a TOYOPEARL carrier with iodoacetamide groups; cysteine tag sequence serving as immobilization tag at positions 220-226
# notes: KIAA0319L PKD1 and PKD2 with 11 substitutions (AVR10s plus Ala330Val); also called AVR11a column
# B2: AAV-binding protein AVR10s with cysteine tag (SEQ ID NO: 97), immobilised as AVR10s immobilization gel (receptor)
# chain: B1 chain with V21A
# modifications: immobilised on a TOYOPEARL carrier with iodoacetamide groups; cysteine tag sequence serving as immobilization tag at positions 220-226
# notes: purified on Ni Sepharose and coupled to the carrier; also called AVR10s column
# How the values were obtained:
# AAV2 E499A [1] = target: T1, AAV2 E499A (adeno-associated virus serotype 2 (AAV2), UniProt P03135 1-735); assay: affinity HPLC, AVR11a immobilization gel, linear pH gradient 6.0 to 2.0, AAV2 peak top
# T1 construct: Recombinant AAV2 vector particles in filtered cell lysate
# AAV2 S384A [2] = target: T2, AAV2 S384A (adeno-associated virus serotype 2 (AAV2), UniProt P03135 1-735); assay: as above
# T2 construct: Recombinant AAV2 vector particles in filtered cell lysate
# AAV2 D528A [3] = target: T3, AAV2 D528A (adeno-associated virus serotype 2 (AAV2), UniProt P03135 1-735); assay: as above
# T3 construct: Recombinant AAV2 vector particles in filtered cell lysate
# AAV2 D529E [4] = target: T4, AAV2 D529E (adeno-associated virus serotype 2 (AAV2), UniProt P03135 1-735); assay: as above
# T4 construct: Recombinant AAV2 vector particles in filtered cell lysate
# AAV2 R471A [5] = target: T5, AAV2 R471A (adeno-associated virus serotype 2 (AAV2), UniProt P03135 1-735); assay: as above
# T5 construct: Recombinant AAV2 vector particles in filtered cell lysate
# AAV2 S267A [6] = target: T6, AAV2 S267A (adeno-associated virus serotype 2 (AAV2), UniProt P03135 1-735); assay: as above
# T6 construct: Recombinant AAV2 vector particles in filtered cell lysate
# [7] = target: T7, AAV2 (wild type), serotype 2 AAV with capsid region VP1 of SEQ ID NO: 99 (adeno-associated virus serotype 2 (AAV2), UniProt P03135 1-735); assay: as above
# T7 construct: Recombinant AAV2 vector particles (EGFP genome) in filtered cell lysate; the capsid is assembled from VP1, VP2 and VP3
# AAV2 Q385A [8] = target: T8, AAV2 Q385A (adeno-associated virus serotype 2 (AAV2), UniProt P03135 1-735); assay: as above
# T8 construct: Recombinant AAV2 vector particles in filtered cell lysate
# AAV2 Q263A [9] = target: T9, AAV2 Q263A (adeno-associated virus serotype 2 (AAV2), UniProt P03135 1-735); assay: as above
# T9 construct: Recombinant AAV2 vector particles in filtered cell lysate
# AAV2 S267T [10] = target: T10, AAV2 S267T (adeno-associated virus serotype 2 (AAV2), UniProt P03135 1-735); assay: as above
# T10 construct: Recombinant AAV2 vector particles in filtered cell lysate
# AAV2 N382A [11] = target: T11, AAV2 N382A (adeno-associated virus serotype 2 (AAV2), UniProt P03135 1-735); assay: as above
# T11 construct: Recombinant AAV2 vector particles in filtered cell lysate
# AAV2 S264A [12] = target: T12, AAV2 S264A (adeno-associated virus serotype 2 (AAV2), UniProt P03135 1-735); assay: as above
# T12 construct: Recombinant AAV2 vector particles in filtered cell lysate
# AAV2 T503S [13] = target: T13, AAV2 T503S (adeno-associated virus serotype 2 (AAV2), UniProt P03135 1-735); assay: as above
# T13 construct: Recombinant AAV2 vector particles in filtered cell lysate
# AAV2 H271Q [14] = target: T14, AAV2 H271Q (adeno-associated virus serotype 2 (AAV2), UniProt P03135 1-735); assay: affinity HPLC on AVR11a column, pH gradient 6.0 to 2.0; no elution peak, not adsorbed and passed through
# T14 construct: Recombinant AAV2 vector particles in filtered cell lysate
# AAV2 H271A [15] = target: T15, AAV2 H271A (adeno-associated virus serotype 2 (AAV2), UniProt P03135 1-735); assay: as above
# T15 construct: Recombinant AAV2 vector particles in filtered cell lysate
# AAV2 D529A [16] = target: T16, AAV2 D529A (adeno-associated virus serotype 2 (AAV2), UniProt P03135 1-735); assay: as above
# T16 construct: Recombinant AAV2 vector particles in filtered cell lysate
# AAV2 H271F [17] = target: T17, AAV2 H271F (adeno-associated virus serotype 2 (AAV2), UniProt P03135 1-735); assay: as above
# T17 construct: Recombinant AAV2 vector particles in filtered cell lysate
# AAV2 H271T [18] = target: T18, AAV2 H271T (adeno-associated virus serotype 2 (AAV2), UniProt P03135 1-735); assay: as above
# T18 construct: Recombinant AAV2 vector particles in filtered cell lysate
# AAV2 G383A [19] = target: T19, AAV2 G383A (adeno-associated virus serotype 2 (AAV2), UniProt P03135 1-735); assay: as above
# T19 construct: Recombinant AAV2 vector particles in filtered cell lysate
# AAV2 E499A [20] = target: T1, AAV2 E499A; assay: affinity HPLC, AVR10s immobilization gel, linear pH gradient 4.5 to 2.2, AAV2 peak top
# AAV2 S384A [21] = target: T2, AAV2 S384A; assay: as above
# AAV2 D528A [22] = target: T3, AAV2 D528A; assay: as above
# AAV2 D529E [23] = target: T4, AAV2 D529E; assay: as above
# AAV2 H271Q [24] = target: T14, AAV2 H271Q; assay: as above
# AAV2 R471A [25] = target: T5, AAV2 R471A; assay: as above
# AAV2 H271A [26] = target: T15, AAV2 H271A; assay: as above
# AAV2 S267A [27] = target: T6, AAV2 S267A; assay: as above
# [28] = target: T7, AAV2 (wild type), serotype 2 AAV with …; assay: as above
# AAV2 Q385A [29] = target: T8, AAV2 Q385A; assay: as above
# AAV2 H271T [30] = target: T18, AAV2 H271T; assay: as above
# AAV2 Q263A [31] = target: T9, AAV2 Q263A; assay: as above
# AAV2 S267T [32] = target: T10, AAV2 S267T; assay: as above
# AAV2 N382A [33] = target: T11, AAV2 N382A; assay: as above
# AAV2 S264A [34] = target: T12, AAV2 S264A; assay: as above
# AAV2 T503S [35] = target: T13, AAV2 T503S; assay: as above
# AAV2 D529A [36] = target: T16, AAV2 D529A; assay: affinity HPLC on AVR10s column, pH gradient 4.5 to 2.2; no elution peak, not adsorbed and passed through
# AAV2 H271F [37] = target: T17, AAV2 H271F; assay: as above
# AAV2 G383A [38] = target: T19, AAV2 G383A; assay: as above
binder,measurement,setting,value
B1,AVR11a column elution time,AAV2 E499A [1],59.3 min
same,AVR11a column elution time,AAV2 S384A [2],58.6 min
same,AVR11a column elution time,AAV2 D528A [3],55.5 min
same,AVR11a column elution time,AAV2 D529E [4],54.5 min
same,AVR11a column elution time,AAV2 R471A [5],60.3 min
same,AVR11a column elution time,AAV2 S267A [6],59.4 min
same,AVR11a column elution time,[7],59.8 min
same,AVR11a column elution time,AAV2 Q385A [8],57.7 min
same,AVR11a column elution time,AAV2 Q263A [9],60.2 min
same,AVR11a column elution time,AAV2 S267T [10],59.2 min
same,AVR11a column elution time,AAV2 N382A [11],53.5 min
same,AVR11a column elution time,AAV2 S264A [12],59.6 min
same,AVR11a column elution time,AAV2 T503S [13],55.2 min
same,binding result,AAV2 H271Q [14],no binding
same,binding result,AAV2 H271A [15],no binding
same,binding result,AAV2 D529A [16],no binding
same,binding result,AAV2 H271F [17],no binding
same,binding result,AAV2 H271T [18],no binding
same,binding result,AAV2 G383A [19],no binding
B2,AVR10s column elution time,AAV2 E499A [20],53.1 min
same,AVR10s column elution time,AAV2 S384A [21],52.1 min
same,AVR10s column elution time,AAV2 D528A [22],47.5 min
same,AVR10s column elution time,AAV2 D529E [23],47 min
same,AVR10s column elution time,AAV2 H271Q [24],46.4 min
same,AVR10s column elution time,AAV2 R471A [25],53.4 min
same,AVR10s column elution time,AAV2 H271A [26],46.7 min
same,AVR10s column elution time,AAV2 S267A [27],52.9 min
same,AVR10s column elution time,[28],54.4 min
same,AVR10s column elution time,AAV2 Q385A [29],50.9 min
same,AVR10s column elution time,AAV2 H271T [30],42.6 min
same,AVR10s column elution time,AAV2 Q263A [31],54.4 min
same,AVR10s column elution time,AAV2 S267T [32],54.2 min
same,AVR10s column elution time,AAV2 N382A [33],46.4 min
same,AVR10s column elution time,AAV2 S264A [34],53.7 min
same,AVR10s column elution time,AAV2 T503S [35],48 min
same,binding result,AAV2 D529A [36],no binding
same,binding result,AAV2 H271F [37],no binding
same,binding result,AAV2 G383A [38],no binding
